This passage reports Km and Vmax results from patent US20060287320A1, “Preparation of thioarabinofuranosyl compounds and use thereof” (Southern Research Institute, priority 1998, published 2006).

What all share (assay): purified protein, by the assay type
Substrate in data set [1]: Nc1ccn([C@@H]2S[C@H](CO)[C@@H](O)[C@@H]2O)c(=O)n1
Substrate in data set [2]: Nc1ccn([C@H]2C[C@H](O)[C@@H](CO)O2)c(=S)n1
The note with it: other: dCyd deaminase activity from human placenta, pH 7.4, mean and standard deviation from 3 experiments.

Substrate in data set [3]: Nc1ccn([C@H]2C[C@H](O)[C@@H](CO)O2)c(=O)n1
The note with it: other: dCyd deaminase activity from human placenta, pH 7.4, mean and standard deviation from 3 experiments.

Setting [4] is: other: dCyd deaminase activity from human placenta, pH 7.4, mean and standard deviation from 3 experiments.

B1: dCyd Deaminase Activity Isolated from Human Placenta (Homo sapiens) (protein)
chain: MAQKRPACTLKPECVQQLLVCSQEAKKSAYCPYSHFPVGAALLTQEGRIFKGCNIENACYPLGICAERTAIQKAVSEGYKDFRAIAIASDMQDDFISPCGACRQVMREFGTNWPVYMTKPDGTYIVMTVQELLPSSFGPEDLQKTQ
As for B1, the Michaelis-Menten constant (Km) (in general, the concentration of substrate that gives half-maximal velocity) stood at 2944 ± 1023 µM in data set [1] (setting [4]), 111 ± 77 µM in data set [2] and 23 ± 2.7 µM in data set [3]. Besides, the Vmax (commonly the rate approached at saturating substrate) amounted to 2.1e-05 µmol/min/mg in data set [1] (setting [4]), 3.7e-05 µmol/min/mg in data set [2] and 1.3e-05 µmol/min/mg in data set [3].

B2: cytidine deaminase (Homo sapiens) (protein)
chain: MAQKRPACTLKPECVQQLLVCSQEAKKSAYCPYSHFPVGAALLTQEGRIFKGCNIENACYPLGICAERTAIQKAVSEGYKDFRAIAIASDMQDDFISPCGACRQVMREFGTNWPVYMTKPDGTYIVMTVQELLPSSFGPEDLQKTQ
As to B2, the Michaelis-Menten constant (Km) in data set [1] (other: cytidine deaminase, radioactive substrates) stood at 2570 µM.
